# Patent US20130337438A1 (JAPAN HEALTH SCIENCES FOUNDATION, published 2013)
# B1: monoclonal antibody 13B (antibody, V domains shown)
# VH: DVQLQESGPGLVKPSQSLSLSCTVTGYSITSDSAWNWIRQFPGNKLEWMGYITFSGSTNYNPSLKSRLSITRDTSKNQFFLQLNSVTTEDTATYYCTGPFLDYWGQGTTLTVSS
# VL: DVVMTQTPLSLPVSLGDQATISCRSSLSLVLSNRITYLQWYLQKPGQSPKLLIYKVSNRFSGVPDRFSGSGSGTDFTLKISRVEAEDLGVYFCSQSSHFPWTFGGGTKLEIKR
# notes: Used as mouse ascites or as antibody purified from ascites; also called Mouse-Mouse hybridoma 13B (FERM BP-11304)
# Legend:
# [1] = target: T1, HPV33 L1/L2-capsid (human papillomavirus type 33, UniProt P06418 1-467; P06416 1-499); assay: ELISA on immobilized L1/L2-capsid, purified antibody 250 ng/well
# T1 construct: Capsid of co-expressed L1 and L2 from 293FT cells; The pseudovirus is the same capsid with a reporter plasmid; also called L1/L2-capsid of type 33; HPV33 pseudovirus
# T1 sequence 1: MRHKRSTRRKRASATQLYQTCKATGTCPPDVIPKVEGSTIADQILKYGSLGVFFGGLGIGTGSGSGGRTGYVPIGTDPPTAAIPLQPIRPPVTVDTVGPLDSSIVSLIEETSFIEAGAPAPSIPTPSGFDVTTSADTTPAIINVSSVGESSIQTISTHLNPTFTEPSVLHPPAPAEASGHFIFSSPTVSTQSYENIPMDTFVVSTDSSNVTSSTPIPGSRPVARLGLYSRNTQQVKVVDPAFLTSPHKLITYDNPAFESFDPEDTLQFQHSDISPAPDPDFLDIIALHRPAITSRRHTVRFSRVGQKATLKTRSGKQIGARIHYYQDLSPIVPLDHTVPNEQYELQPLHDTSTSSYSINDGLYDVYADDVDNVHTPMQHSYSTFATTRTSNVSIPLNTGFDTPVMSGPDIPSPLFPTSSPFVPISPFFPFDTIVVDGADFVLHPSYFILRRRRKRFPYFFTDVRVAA
# T1 sequence 2: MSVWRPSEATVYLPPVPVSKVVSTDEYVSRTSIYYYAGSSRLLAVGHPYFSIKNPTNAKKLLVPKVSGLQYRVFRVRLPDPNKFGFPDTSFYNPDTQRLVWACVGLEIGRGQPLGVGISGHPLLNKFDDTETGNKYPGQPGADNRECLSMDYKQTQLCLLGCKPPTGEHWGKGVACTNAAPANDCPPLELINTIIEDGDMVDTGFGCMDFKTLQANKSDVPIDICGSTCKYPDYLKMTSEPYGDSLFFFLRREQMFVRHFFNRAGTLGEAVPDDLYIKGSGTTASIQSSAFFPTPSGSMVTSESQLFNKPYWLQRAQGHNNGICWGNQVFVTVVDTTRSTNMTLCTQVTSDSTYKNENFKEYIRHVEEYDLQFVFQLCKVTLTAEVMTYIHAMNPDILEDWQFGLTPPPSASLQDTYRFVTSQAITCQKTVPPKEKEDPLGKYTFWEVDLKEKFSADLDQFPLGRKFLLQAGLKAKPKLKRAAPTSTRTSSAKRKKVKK
# [2] = target: T2, HPV35 L1/L2-capsid (human papillomavirus type 35, UniProt P27234 1-469; P27232 1-502); assay: ELISA on immobilized L1/L2-capsid
# T2 construct: Capsid of co-expressed L1 and L2 from 293FT cells; The pseudovirus is the same capsid with a reporter plasmid; also called L1/L2-capsid of type 35; HPV35 pseudovirus
# T2 sequence 1: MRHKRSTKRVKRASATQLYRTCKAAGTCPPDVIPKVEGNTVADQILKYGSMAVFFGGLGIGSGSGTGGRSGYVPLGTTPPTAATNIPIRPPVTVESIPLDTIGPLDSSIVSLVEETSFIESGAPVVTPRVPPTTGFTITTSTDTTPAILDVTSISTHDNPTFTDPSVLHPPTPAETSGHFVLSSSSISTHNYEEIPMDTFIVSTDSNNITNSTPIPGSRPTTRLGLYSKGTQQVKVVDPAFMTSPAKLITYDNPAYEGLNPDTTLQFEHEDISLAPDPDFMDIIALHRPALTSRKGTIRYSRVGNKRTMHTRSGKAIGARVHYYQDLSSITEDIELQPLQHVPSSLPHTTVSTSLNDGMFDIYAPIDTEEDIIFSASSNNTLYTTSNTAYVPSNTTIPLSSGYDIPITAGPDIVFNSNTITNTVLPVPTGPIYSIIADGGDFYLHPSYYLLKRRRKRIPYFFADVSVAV
# T2 sequence 2: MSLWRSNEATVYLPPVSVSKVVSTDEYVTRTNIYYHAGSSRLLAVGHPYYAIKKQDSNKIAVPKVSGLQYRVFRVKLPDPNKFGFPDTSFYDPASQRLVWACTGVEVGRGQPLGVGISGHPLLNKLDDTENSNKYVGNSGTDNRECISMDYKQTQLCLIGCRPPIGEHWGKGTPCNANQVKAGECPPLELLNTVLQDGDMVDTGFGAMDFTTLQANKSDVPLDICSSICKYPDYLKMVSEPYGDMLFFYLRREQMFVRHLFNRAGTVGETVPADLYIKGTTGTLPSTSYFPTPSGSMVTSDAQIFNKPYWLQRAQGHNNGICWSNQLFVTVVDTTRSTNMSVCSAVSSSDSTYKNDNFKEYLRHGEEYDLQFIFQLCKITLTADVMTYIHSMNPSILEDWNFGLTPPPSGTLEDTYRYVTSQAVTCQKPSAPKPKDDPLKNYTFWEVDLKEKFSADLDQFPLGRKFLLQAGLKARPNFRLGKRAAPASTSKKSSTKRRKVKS
binder,measurement,setting,value
B1,binding result,[1],binds
same,binding result,[2],no binding (tested: ascites diluted 1:100)
